For the assay, the target named is HLA-DQ2.2 (DQA1*02:01/DQB1*02:02) with the covalently linked glutL1 peptide. The assay can be described thus: SPR; Biacore T200; biotinylated HLA-DQ2 molecules immobilised on a streptavidin chip (about 3000 RU), biotinylated HLA-DQ8glia-α1 in the reference cell; serial dilutions of TCR flowed at 10 μl/min in 20 mM HEPES pH 7.5, 150 mM NaCl, 1 mM EDTA, 0.005% TWEEN 20; steady-state KD, 1:1 (single ligand) binding model.

This is an account of results in PMC11979002.

The substance G9 TCR, β-chain S58A had a Kd of 7.8 µM.
The same measure for G9 TCR, β-chain R75A: 10.2 µM.

The Kd is the concentration at which binding is half-saturated. High values mean weaker binding, low ones tighter binding.
